± gives the uncertainty stated by the source.
Test: self-splicing fitness, log relative to wild type (ln ratio); higher = more splicing; Tetrahymena group I intron in knt gene, E. coli kanamycin selection, DiMSum; sequences stand for … in CUCUCU…GGAGGGAAAAGUUAUCAGGCAUGCACCUGGUAGCUAGUCUUUAAACCAAUAGAUUGCAUCGGUUUAAAAGGCAAGACCGUCAAAUUGCGGGAAAGGGGUCAACAGCCGUUCAGUACCAAGUCUCAGGGGAAACUUUGAGAUGGCCUUGCAAAGGGUAUGGUAAUAAGCUGACGGACAUGGUCCUAACCACGCAGCCAAGUCCUAAGUCAACAGAUCUUCUGUUGAUAUGGAUGCAGUUCACAGACUAAAUGUCGGUCGGGGAAGAUGUAUUCUUCUCAUAAGAUAUAGUCGGACCUCUCCUUAAUGGGAGCUAGCGGAUGAAGUGAUGCAACACUGGAGCCGCUGGGAACUAAUUUGUAUGCGAAAGUAUAUUGAUUAGUUUUGGAGUACUCGUGGUCG
Method in brief: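 Colonies from six replicate transformations of E. coli BL21(DE3) were pooled and amplicon-sequenced on an Illumina HiSeq 2500. The library placed an intron with all eight P1ex-region nucleotides randomised inside the knt kanamycin-resistance gene on pET-22b(+), and cells grew overnight at 37°C or 30°C on LB agar with or without 25 μg/mL kanamycin (plus 100 μg/mL carbenicillin, 50 μM IPTG, 0.2% rhamnose). Fitness is the DiMSum error-weighted combination of wild-type-normalised replicate fold changes, kanamycin versus none.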

Sequence	self-splicing fitness (ln) (30 °C)	self-splicing fitness (ln) (37 °C)
GAUCAGCAAUAUUACGACGG	-2.63 ± 0.28	-0.19 ± 0.25
GAUCAGCAAUAUUACGACGU	0.142 ± 0.076	0.682 ± 0.089
GAUCAGCAAUAUUACGAGUU	-1.26 ± 0.094	-0.882 ± 0.12
GAUCAGCAAUAUUACGAUAC	-1.08 ± 0.078	-0.733 ± 0.12
GAUCAGCAAUAUUACGCAAA	-0.978 ± 0.17	-0.367 ± 0.16
GAUCAGCAAUAUUACGCAGG	-3.3 ± 0.29	-1.09 ± 0.12
GAUCAGCAAUAUUACGCGGC	-3.7 ± 0.37	-2.89 ± 0.4
GAUCAGCAAUAUUACGCGUA	-0.39 ± 0.095	-0.283 ± 0.14
GAUCAGCAAUAUUACGGAUG	-1.19 ± 0.068	-0.813 ± 0.076
GAUCAGCAAUAUUACGGCAG	-3.4 ± 0.33	-2.34 ± 0.27
GAUCAGCAAUAUUACGGCCU	-1.13 ± 0.22	-1.18 ± 0.23
GAUCAGCAAUAUUACGGCUA	-0.263 ± 0.099	0.0701 ± 0.11
GAUCAGCAAUAUUACGGCUG	-3.29 ± 0.19	-1.12 ± 0.16
GAUCAGCAAUAUUACGGUAC	-0.39 ± 0.11	-0.884 ± 0.12
GAUCAGCAAUAUUACGGUCG	-1.42 ± 0.092	-0.484 ± 0.088
GAUCAGCAAUAUUACGUAUA	-0.819 ± 0.091	-0.975 ± 0.088
GAUCAGCAAUAUUACGUAUU	-2.69 ± 0.12	-1.38 ± 0.12
GAUCAGCAAUAUUACGUCUU	0.24 ± 0.076	0.0656 ± 0.085
GAUCAGCAAUAUUACGUGGG	-3.21 ± 0.13	-1.7 ± 0.11
GAUCAGCAAUAUUACGUUUG	-1.53 ± 0.058	0.151 ± 0.08
GAUGAGCAAUAUUACGACAA	-2.95 ± 0.31	
GAUGAGCAAUAUUACGACGC	-0.267 ± 0.15	0.408 ± 0.23
GAUGAGCAAUAUUACGAGGA	-2.63 ± 0.17	-2.89 ± 0.15
GAUGAGCAAUAUUACGAUGG	-1.57 ± 0.13	-2 ± 0.25
GAUGAGCAAUAUUACGCACG	-3.63 ± 0.32	-2.25 ± 0.3
GAUGAGCAAUAUUACGCAUU		-1.96 ± 0.39

Sequence	self-splicing fitness (ln) (30 °C)	self-splicing fitness (ln) (37 °C)
GAUGAGCAAUAUUACGCGCC	-3.17 ± 0.3	-2.26 ± 0.2
GAUGAGCAAUAUUACGGACG		-1.49 ± 0.26
GAUGAGCAAUAUUACGGCAG		-2.52 ± 0.41
GAUGAGCAAUAUUACGGCGA	-2.19 ± 0.17	-1.38 ± 0.13
GAUGAGCAAUAUUACGGGAA	-3.01 ± 0.23	-3.7 ± 0.42
GAUGAGCAAUAUUACGUAUA		-1.82 ± 0.35
GAUGAGCAAUAUUACGUGAG	-2.88 ± 0.23	-2.06 ± 0.28
GAUUAGCAAUAUUACGAAAG	-2.38 ± 0.25	-0.574 ± 0.23
GAUUAGCAAUAUUACGAAGA	-1.25 ± 0.43	-0.415 ± 0.38
GAUUAGCAAUAUUACGAAGG	-3.53 ± 0.43	-1.8 ± 0.35
GAUUAGCAAUAUUACGAUUC	-2.58 ± 0.22	-1.45 ± 0.2
GAUUAGCAAUAUUACGCGCG	-1.03 ± 0.097	-0.745 ± 0.12
GAUUAGCAAUAUUACGCGGA	-3.19 ± 0.26	-1.55 ± 0.15
GAUUAGCAAUAUUACGGAAU	-2.71 ± 0.15	-2.11 ± 0.17
GAUUAGCAAUAUUACGGAUC	-2.71 ± 0.4	-2.18 ± 0.32
GAUUAGCAAUAUUACGGGGU	-3.45 ± 0.18	-2.11 ± 0.13
GAUUAGCAAUAUUACGGUAG	-2.5 ± 0.15	-1.21 ± 0.12
GAUUAGCAAUAUUACGGUAU	-1.75 ± 0.12	-1.14 ± 0.14
GAUUAGCAAUAUUACGGUUU	-0.946 ± 0.083	0.231 ± 0.11
GAUUAGCAAUAUUACGUAUG	-1.75 ± 0.065	-1.33 ± 0.087
GAUUAGCAAUAUUACGUCAA	-2.6 ± 0.41	-0.886 ± 0.22
GAUUAGCAAUAUUACGUGCA	-1.7 ± 0.14	-0.0754 ± 0.09
GAUUAGCAAUAUUACGUUAC	-2.63 ± 0.19	-2.53 ± 0.23
GAUUAGCAAUAUUACGUUCC	-2.41 ± 0.3	-1.59 ± 0.19
GCAAAGCAAUAUUACGAAGU	-3.24 ± 0.16	-1.22 ± 0.11
GCAAAGCAAUAUUACGACUC	-0.773 ± 0.13	0.0939 ± 0.11

Sequence	self-splicing fitness (ln) (30 °C)	self-splicing fitness (ln) (37 °C)
GCAAAGCAAUAUUACGACUU	-0.0792 ± 0.067	-0.0895 ± 0.087
GCAAAGCAAUAUUACGAGAA	-3 ± 0.2	-1.66 ± 0.18
GCAAAGCAAUAUUACGAGUG	-2.57 ± 0.097	-0.371 ± 0.092
GCAAAGCAAUAUUACGAUCC	-0.0105 ± 0.12	-0.518 ± 0.13
GCAAAGCAAUAUUACGCAAU	-3.41 ± 0.13	-1 ± 0.092
GCAAAGCAAUAUUACGCAGU	-3.23 ± 0.28	-2.42 ± 0.23
GCAAAGCAAUAUUACGCCAU	-2.9 ± 0.17	-1.6 ± 0.22
GCAAAGCAAUAUUACGCCCU	-0.279 ± 0.2	0.0848 ± 0.16
GCAAAGCAAUAUUACGCGCC	-2.2 ± 0.26	-2.09 ± 0.36
GCAAAGCAAUAUUACGCUGG	-2.41 ± 0.13	-0.395 ± 0.14
GCAAAGCAAUAUUACGGAGU	-3.58 ± 0.17	-2.42 ± 0.21
GCAAAGCAAUAUUACGGGUU	-2.11 ± 0.12	-1.67 ± 0.16
GCAAAGCAAUAUUACGGUUA	-0.938 ± 0.08	-0.429 ± 0.076
GCAAAGCAAUAUUACGUAGC	-4.47 ± 0.46	-1.71 ± 0.22
GCAAAGCAAUAUUACGUCAA	-3.16 ± 0.19	-2.02 ± 0.14
GCAAAGCAAUAUUACGUCGG	-3.15 ± 0.19	-1.22 ± 0.13
GCAAAGCAAUAUUACGUGCU	-3.46 ± 0.12	-2.73 ± 0.17
GCAAAGCAAUAUUACGUUAU	-1.73 ± 0.084	-1.54 ± 0.092
GCACAGCAAUAUUACGACAC	-0.345 ± 0.078	0.29 ± 0.093
GCACAGCAAUAUUACGAGAA	-2.66 ± 0.25	-0.185 ± 0.12
GCACAGCAAUAUUACGAGGA	-2.11 ± 0.096	-1.23 ± 0.099
GCACAGCAAUAUUACGAUAC	-1.21 ± 0.074	-0.488 ± 0.084
GCACAGCAAUAUUACGAUAG	-1.91 ± 0.087	-1.14 ± 0.1
GCACAGCAAUAUUACGAUGA	-0.231 ± 0.076	-0.14 ± 0.078

From the supplement of paper PMC7877785
